Experimental findings from patent US20250304640A1 (ORIKINE BIO SL, published 2025) are described below.

Assay in all cases: cell-based or functional assay
In one experiment the target is T1, IL10RA (UniProt Q13651 22-578, limits assumed).
T1 sequence (looked up): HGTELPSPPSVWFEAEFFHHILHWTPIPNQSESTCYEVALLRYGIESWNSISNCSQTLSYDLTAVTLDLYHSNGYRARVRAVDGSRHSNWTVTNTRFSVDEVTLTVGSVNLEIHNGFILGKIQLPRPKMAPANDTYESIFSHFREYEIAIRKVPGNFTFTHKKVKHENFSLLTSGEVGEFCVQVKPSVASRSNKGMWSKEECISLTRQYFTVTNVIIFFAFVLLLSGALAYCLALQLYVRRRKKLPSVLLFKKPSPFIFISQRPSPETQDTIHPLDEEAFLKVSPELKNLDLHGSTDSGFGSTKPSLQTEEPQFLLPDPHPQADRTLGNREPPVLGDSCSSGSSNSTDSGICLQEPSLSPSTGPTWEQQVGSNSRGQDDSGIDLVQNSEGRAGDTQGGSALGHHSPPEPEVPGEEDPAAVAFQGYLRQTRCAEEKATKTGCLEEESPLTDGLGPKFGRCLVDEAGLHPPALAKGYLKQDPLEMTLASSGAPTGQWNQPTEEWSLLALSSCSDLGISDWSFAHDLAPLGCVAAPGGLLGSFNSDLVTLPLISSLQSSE

A further experiment deals with CSF1 receptor (CSF1R) (UniProt P07333).
Sequence of CSF1 receptor (CSF1R) (P07333 20-972 limits assumed): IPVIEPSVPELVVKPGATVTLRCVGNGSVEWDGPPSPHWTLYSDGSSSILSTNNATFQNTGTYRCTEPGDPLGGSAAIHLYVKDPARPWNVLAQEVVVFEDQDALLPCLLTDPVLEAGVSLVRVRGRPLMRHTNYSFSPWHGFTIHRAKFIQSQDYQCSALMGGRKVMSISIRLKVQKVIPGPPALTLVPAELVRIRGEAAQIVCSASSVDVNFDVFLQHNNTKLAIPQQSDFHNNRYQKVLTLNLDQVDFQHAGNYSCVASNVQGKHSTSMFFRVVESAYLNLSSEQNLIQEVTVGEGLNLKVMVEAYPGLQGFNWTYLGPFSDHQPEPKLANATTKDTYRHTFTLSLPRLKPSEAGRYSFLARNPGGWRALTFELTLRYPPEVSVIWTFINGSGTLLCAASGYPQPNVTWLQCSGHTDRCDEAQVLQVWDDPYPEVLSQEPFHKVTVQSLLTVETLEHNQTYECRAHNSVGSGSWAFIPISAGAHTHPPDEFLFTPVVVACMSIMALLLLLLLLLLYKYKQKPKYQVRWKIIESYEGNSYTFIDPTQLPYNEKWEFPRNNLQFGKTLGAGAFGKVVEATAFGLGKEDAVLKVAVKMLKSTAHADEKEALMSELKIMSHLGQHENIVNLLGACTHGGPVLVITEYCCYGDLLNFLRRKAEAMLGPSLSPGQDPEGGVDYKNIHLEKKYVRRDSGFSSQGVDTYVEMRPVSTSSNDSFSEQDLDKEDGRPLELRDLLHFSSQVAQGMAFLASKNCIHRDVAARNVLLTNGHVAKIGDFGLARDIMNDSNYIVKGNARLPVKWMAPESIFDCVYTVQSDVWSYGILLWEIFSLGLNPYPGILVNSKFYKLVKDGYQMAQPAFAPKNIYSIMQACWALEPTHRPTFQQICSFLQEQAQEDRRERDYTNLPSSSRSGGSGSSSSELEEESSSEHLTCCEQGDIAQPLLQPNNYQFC
Experiment [1] has as its target T2, IL-10 receptor (IL-10R: IL10RA and IL10RB) on HEK-Blue IL-10 reporter cells (UniProt Q13651 22-578; Q08334 20-325, limits assumed).
T2 sequence (looked up) 1: T1 sequence (looked up)
T2 sequence (looked up) 2: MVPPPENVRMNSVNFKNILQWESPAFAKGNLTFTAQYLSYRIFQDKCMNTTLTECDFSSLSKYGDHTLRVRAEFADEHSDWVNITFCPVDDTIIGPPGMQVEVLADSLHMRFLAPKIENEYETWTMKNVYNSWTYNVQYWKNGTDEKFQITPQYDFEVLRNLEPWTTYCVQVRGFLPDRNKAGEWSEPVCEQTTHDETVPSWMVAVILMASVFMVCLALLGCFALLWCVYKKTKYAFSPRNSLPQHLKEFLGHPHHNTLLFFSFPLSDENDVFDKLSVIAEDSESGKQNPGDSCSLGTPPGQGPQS

In experiment [2] the target is T2, IL-10 receptor (IL-10R: IL10RA and …). The source holds these as a separate data set.

Residue numbers refer to the chain shown, from its start. Names and notes keep the numbering of the source.

B1: ORK10-003-HiBit R24A (ligand)
chain: MTQSENSCTHFPGNLPNMLRDLRDAFSRVKTFFQMKDQLDNLLLKESLLEDFKGYLGCQALSEMIQFYLEEVMPQAENQDPDIKAHVNSLGENLKTLRLRLRRCHRFLPCENKSKAVEQVKNAFNKLQEKGIYKAMSEFDIFINYIEAYLYKTITPEFANMLADLRDAFSRVKTFFQMKDQLDNLLLKESLLEDFKGYLGCQALSEMIQFYLEEVMPQAENQDPDIKAHVNSLGENLKTLRLRLRRCHRFLPCENKSKAVEQVKNAFNKLQEKGIYKAMSEFDIFINYIEAYMTMGGVSGWRLFKKIS
On to B1, for which the “EC-50, HEK-Blue IL-10 reporter cells” value with IL10RA was found to be 1.51e-10.

B2: ORK10-003-HiBit D44N (ligand)
chain: B1 chain with A163R, D183N
On to B2, for which, in the experiment with IL10RA, the “EC-50, HEK-Blue IL-10 reporter cells” value was 4.37e-10.

B3: ORK10-003-HiBit E50A (ligand)
chain: B1 chain with A163R, E189A
For the molecule B3, the “EC-50, HEK-Blue IL-10 reporter cells” value in the experiment with IL10RA stood at 5.43e-11.

B4: ORK10-003-HiBit Q38A (ligand)
chain: B1 chain with A163R, Q177A
As to B4, the “EC-50, HEK-Blue IL-10 reporter cells” value in the experiment with IL10RA turned out to be 2.07e-10.

B5: ORK10-003-HiBit D44A (ligand)
chain: B1 chain with A163R, D183A
With B5, the “EC-50, HEK-Blue IL-10 reporter cells” value with IL10RA stood at 2.01e-09.

B6: ORK10-003-HiBit K34A (ligand)
chain: B1 chain with A163R, K173A
With B6, the “EC-50, HEK-Blue IL-10 reporter cells” value with IL10RA amounted to 9.22e-10.

B7: CSF1 (1-190) HiBiT (ligand)
chain: EEVSEYCSHMIGSGHLQSLQRLIDSQMETSCQITFEFVDQEQLKDPVCYLKKAFLLVQDIMEDTMRFRDNTPNAIAIVQLQELSLRLKSCFTKDYEEHDKACVRTFYETPLQLLEKVKNVFNETKNLLDKDWNIFSKNCNNSFAECSSQDGGVSGWRLFKKIS
As for B7, the EC-50, HEK293 CSF1R/SRE reporter with CSF1 receptor (CSF1R) came out at 1.45e-09.

B8: CSF1-25AA-IL10-HiBit (ligand)
chain: EEVSEYCSHMIGSGHLQSLQRLIDSQMETSCQITFEFVDQEQLKDPVCYLKKAFLLVQDIMEDTMRFRDNTPNAIAIVQLQELSLRLKSCFTKDYEEHDKACVRTFYETPLQLLEKVKNVFNETKNLLDKDWNIFSKNCNNSFAECSSQDGGGSGGSGGSGGSGGSGGSGGSGGGRASPGQGTQSENSCTHFPGNLPNMLRDLRDAFSRVKTFFQMKDQLDNLLLKESLLEDFKGYLGCQALSEMIQFYLEEVMPQAENQDPDIKAHVNSLGENLKTLRLRLRRCHRFLPCENKSKAVEQVKNAFNKLQEKGIYKAMSEFDIFINYIEAYMTMKIRNGGVSGWRLFKKIS
Consider B8, for which, in experiment [1], the “EC-50 for IL10 activity, HEK-Blue IL-10 reporter cells” value turned out to be 4.1e-10.

B9: ORK10-003 (ligand)
chain: MTQSENSCTHFPGNLPNMLRDLRDAFSRVKTFFQMKDQLDNLLLKESLLEDFKGYLGCQALSEMIQFYLEEVMPQAENQDPDIKAHVNSLGENLKTLRLRLRRCHRFLPCENKSKAVEQVKNAFNKLQEKGIYKAMSEFDIFINYIEAYLYKTITPEFANMLRDLRDAFSRVKTFFQMKDQLDNLLLKESLLEDFKGYLGCQALSEMIQFYLEEVMPQAENQDPDIKAHVNSLGENLKTLRLRLRRCHRFLPCENKSKAVEQVKNAFNKLQEKGIYKAMSEFDIFINYIEAYMTM
As for B9, the “EC-50, HEK-Blue IL-10 reporter cells” value in experiment [2] stood at 2.3e-10.

B10: ORK10-002 (ligand)
chain: MTQSENSCTHFPGNLPNMLRDLRDAFSRVKTFFQMKDQLDNLLLKESLLEDFKGYLGCQALSEMIQFYLEEVMPQAENQDPDIKAHVNSLGENLKTLRLRLRRCHRFLPCENKSKAVEQVKNAFNKLQEKGIYKAMSEFDIFINYIEAYMTMNFGGLDYLPNMLRDLRDAFSRVKTFFQMKDQLDNLLLKESLLEDFKGYLGCQALSEMIQFYLEEVMPQAENQDPDIKAHVNSLGENLKTLRLRLRRCHRFLPCENKSKAVEQVKNAFNKLQEKGIYKAMSEFDIFINYIEAYMTM
Regarding B10, the “EC-50, HEK-Blue IL-10 reporter cells” value in experiment [2] came to 3.87e-10.

B11: IL-10WT (wild-type human IL-10) (ligand)
chain: SPGQGTQSENSCTHFPGNLPNMLRDLRDAFSRVKTFFQMKDQLDNLLLKESLLEDFKGYLGCQALSEMIQFYLEEVMPQAENQDPDIKAHVNSLGENLKTLRLRLRRCHRFLPCENKSKAVEQVKNAFNKLQEKGIYKAMSEFDIFINYIEAYMTMKIRN
Turning to B11, the “EC-50, HEK-Blue IL-10 reporter cells” value in experiment [2] came out at 8.91e-10.

B12: CSF1 (wild-type human CSF1) (ligand)
chain: EEVSEYCSHMIGSGHLQSLQRLIDSQMETSCQITFEFVDQEQLKDPVCYLKKAFLLVQDIMEDTMRFRDNTPNAIAIVQLQELSLRLKSCFTKDYEEHDKACVRTFYETPLQLLEKVKNVFNETKNLLDKDWNIFSKNCNNSFAECSSQD
Take B12: in the experiment with CSF1 receptor (CSF1R), the CSF1 EC-50, HEK293 CSF1R/SRE reporter stood at 7.34e-10; the EC50, HEK293 CSF1R/SRE reporter, biological replica 1 is 1.88e-09; the EC50, HEK293 CSF1R/SRE reporter, biological replica 2 stood at 5.58e-09; the EC-50, HEK293 CSF1R/SRE reporter, biological replica 1 came out at 4.52e-10. In the experiment with CSF1 receptor (CSF1R), the EC-50, HEK293 CSF1R/SRE reporter, biological replica 2 was 3.37e-10; the Max activation value, HEK293 CSF1R/SRE reporter, biological replica 1 was found to be 8.49; the Max activation value, HEK293 CSF1R/SRE reporter, biological replica 2 was found to be 1.14.

B13: CSF1 V120I (ligand)
chain: B12 chain with V120I
For B13, in the experiment with CSF1 receptor (CSF1R), the EC-50, HEK293 CSF1R/SRE reporter, biological replica 1 came out at 8.8e-10; the EC-50, HEK293 CSF1R/SRE reporter, biological replica 2 was determined as 4.43e-10; the Max activation value, HEK293 CSF1R/SRE reporter, biological replica 1 was 8.86; the Max activation value, HEK293 CSF1R/SRE reporter, biological replica 2 came out at 1.37.

B14: CSF1 Q17R (ligand)
chain: B12 chain with Q17R
In the experiment with CSF1 receptor (CSF1R), B14 had an EC50, HEK293 CSF1R/SRE reporter, biological replica 1 of 2.7e-09 and an EC50, HEK293 CSF1R/SRE reporter, biological replica 2 of 7.94e-09.

B15: CSF1 V117I (ligand)
chain: B12 chain with V117I
Regarding B15, in the experiment with CSF1 receptor (CSF1R), the EC-50, HEK293 CSF1R/SRE reporter, biological replica 1 came out at 1e-09; the EC-50, HEK293 CSF1R/SRE reporter, biological replica 2 amounted to 4.37e-10; the Max activation value, HEK293 CSF1R/SRE reporter, biological replica 1 worked out at 7.64; the Max activation value, HEK293 CSF1R/SRE reporter, biological replica 2 amounted to 1.28.

B16: CSF1 Q81F (ligand)
chain: B12 chain with Q81F
Consider B16, for which, in the experiment with CSF1 receptor (CSF1R), the EC50, HEK293 CSF1R/SRE reporter, biological replica 1 worked out at 1.08e-08 and the EC50, HEK293 CSF1R/SRE reporter, biological replica 2 is 6.77e-08.

B17: CSF1 E82K (ligand)
chain: B12 chain with E82K
In the experiment with CSF1 receptor (CSF1R), B17 showed an EC50, HEK293 CSF1R/SRE reporter, biological replica 1 of 1.27e-08 and an EC50, HEK293 CSF1R/SRE reporter, biological replica 2 of 2.49e-08.

B18: CSF1 V78W (ligand)
chain: B12 chain with V78W
In the experiment with CSF1 receptor (CSF1R), B18 returned an EC50, HEK293 CSF1R/SRE reporter, biological replica 1 of 6.23e-09 and an EC50, HEK293 CSF1R/SRE reporter, biological replica 2 of 2.1e-08.

B19: CSF1 A76I, V117L (ligand)
chain: B12 chain with A76I, V117L
Turning to B19, in the experiment with CSF1 receptor (CSF1R), the EC-50, HEK293 CSF1R/SRE reporter, biological replica 1 came to 1.18e-09; the EC-50, HEK293 CSF1R/SRE reporter, biological replica 2 turned out to be 5.97e-10; the Max activation value, HEK293 CSF1R/SRE reporter, biological replica 1 turned out to be 8.55; the Max activation value, HEK293 CSF1R/SRE reporter, biological replica 2 is 1.14.

B20: CSF1 Q79L (ligand)
chain: B12 chain with Q79L
In the experiment with CSF1 receptor (CSF1R), B20 registered an EC50, HEK293 CSF1R/SRE reporter, biological replica 1 of 6.76e-09 and an EC50, HEK293 CSF1R/SRE reporter, biological replica 2 of 1.28e-08.

B21: CSF1 H9F (ligand)
chain: B12 chain with H9F
B21: in the experiment with CSF1 receptor (CSF1R), the EC50, HEK293 CSF1R/SRE reporter, biological replica 1 was 2.66e-09 and the EC50, HEK293 CSF1R/SRE reporter, biological replica 2 is 1.18e-08.

B22: CSF1 S18Q (ligand)
chain: B12 chain with S18Q
In the experiment with CSF1 receptor (CSF1R), B22 registered an EC50, HEK293 CSF1R/SRE reporter, biological replica 1 of 2.51e-09 and an EC50, HEK293 CSF1R/SRE reporter, biological replica 2 of 1.99e-08.

B23: Foldikine10 (ligand)
chain: MTQSENSCTHFPGNLPNMLRDLRDAFSRVKTFFQMKDQLDNLLLKESLLEDFKGYLGCQALSEMIQFYLEEVMPQAENQEPDIKAHVNSLGENLKTLRLRLRRCHRFLPCENKSKAVEQVKNAFNKLQEKGIYKAMSEFDIFINYIEAYMTMNNGGLDYLPNMLRDLRDAFSRVKTFFQMKDQLDNLLLKESLLEDFKGYLGCQALSEMIQFYLEEVMPQAENQDPDIKAHVNSLGENLKTLRLRLRRNHRFLPCENKSKAVEQVKNAFNKLQEKGIYKAMSEFDIFINYIEAYMTMKIRN
As for B23, in experiment [2], the “EC-50, HEK-Blue IL-10 reporter cells” value was found to be 6.01e-10.
